From patent US20140087995A1 (published 2014)
Numbered stars: 1 amine (or outer) side, 2 acyl side, 3 side chain; on linkers, the order of the positions; unused ones are H or OH. Bridge positions count the residues as written; N and C are the ends. Side chains are listed from the residue outwards. Ends that are not written are not given here. * marks the point of attachment. C20 diacid = O=C(O)CCCCCCCCCCCCCCCCCCC(=O)*; γGlu = O=C(O)[C@H](CCC(=O)[*:2])N[*:1]; AEEA = NCCOCCOCC(=O)O

T1: human amylin 3(a) receptor (human calcitonin receptor co-expressed with RAMP-3) (human, UniProt P30988 25-474; O60896 24-148, limits assumed)
T1 sequence (looked up) 1: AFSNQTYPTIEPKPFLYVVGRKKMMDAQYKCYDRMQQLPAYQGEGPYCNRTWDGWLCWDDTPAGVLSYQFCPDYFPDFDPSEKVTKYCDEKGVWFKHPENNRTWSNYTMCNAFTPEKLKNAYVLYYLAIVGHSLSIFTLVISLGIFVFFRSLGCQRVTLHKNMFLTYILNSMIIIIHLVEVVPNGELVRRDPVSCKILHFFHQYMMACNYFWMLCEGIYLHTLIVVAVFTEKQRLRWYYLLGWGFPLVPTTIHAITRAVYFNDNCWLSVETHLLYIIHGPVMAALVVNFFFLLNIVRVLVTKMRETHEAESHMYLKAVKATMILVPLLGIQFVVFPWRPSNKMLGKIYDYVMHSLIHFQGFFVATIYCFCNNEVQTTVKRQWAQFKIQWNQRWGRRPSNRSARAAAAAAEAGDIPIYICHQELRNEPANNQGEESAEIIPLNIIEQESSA
T1 sequence (looked up) 2: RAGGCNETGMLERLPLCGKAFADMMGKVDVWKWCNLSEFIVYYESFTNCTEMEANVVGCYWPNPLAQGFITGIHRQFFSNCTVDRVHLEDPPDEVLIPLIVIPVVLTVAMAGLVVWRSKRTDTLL

T2: human calcitonin receptor (human, UniProt P30988 25-474)
T2 sequence (looked up): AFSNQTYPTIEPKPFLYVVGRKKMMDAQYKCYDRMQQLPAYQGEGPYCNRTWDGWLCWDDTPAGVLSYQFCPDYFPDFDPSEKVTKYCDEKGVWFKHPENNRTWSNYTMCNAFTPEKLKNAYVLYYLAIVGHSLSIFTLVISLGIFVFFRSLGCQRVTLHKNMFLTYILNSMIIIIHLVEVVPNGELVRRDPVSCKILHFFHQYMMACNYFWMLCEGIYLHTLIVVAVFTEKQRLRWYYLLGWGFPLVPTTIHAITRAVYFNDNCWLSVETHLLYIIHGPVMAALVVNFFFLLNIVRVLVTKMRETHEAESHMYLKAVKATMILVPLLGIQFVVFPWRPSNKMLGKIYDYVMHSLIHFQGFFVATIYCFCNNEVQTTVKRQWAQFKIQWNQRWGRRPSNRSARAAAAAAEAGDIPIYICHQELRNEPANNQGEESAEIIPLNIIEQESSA


Columns and labels:
[1] = target: T1, human amylin 3(a) receptor (human …); assay: cell-based or functional assay
[2] = target: T2, human calcitonin receptor; assay: cell-based or functional assay

| Binder | hAmylin-R funct. EC50 [1] [nM] | Ratio hCT/hAmylin funct. [2] | hCTR funct. EC50 [2] [nM] |
| --- | --- | --- | --- |
| K([γGlu-γGlu-C20 diacid])CNTATCATQRLAEFLRHSSPNFGAIPSSTNVGHNTY-NH2 (disulfide 2-7; N-terminus assumed; SMILES CC[C@H](C)[C@H](NC(=O)[C@H](C)NC(=O)CNC(=O)[C@H](Cc1ccccc1)NC(=O)[C@H](CC(N)=O)NC(=O)[C@@H]1CCCN1C(=O)[C@H](CO)NC(=O)[C@H](CO)NC(=O)[C@H](Cc1c[nH]cn1)NC(=O)[C@H](CCCNC(=N)N)NC(=O)[C@H](CC(C)C)NC(=O)[C@H](Cc1ccccc1)NC(=O)[C@H](CCC(=O)O)NC(=O)[C@H](C)NC(=O)[C@H](CC(C)C)NC(=O)[C@H](CCCNC(=N)N)NC(=O)[C@H](CCC(N)=O)NC(=O)[C@@H](NC(=O)[C@H](C)NC(=O)[C@@H]1CSSC[C@H](NC(=O)[C@@H](N)CCCCNC(=O)CC[C@H](NC(=O)CC[C@H](NC(=O)CCCCCCCCCCCCCCCCCCC(=O)O)C(=O)O)C(=O)O)C(=O)N[C@@H](CC(N)=O)C(=O)N[C@@H]([C@@H](C)O)C(=O)N[C@@H](C)C(=O)N[C@@H]([C@@H](C)O)C(=O)N1)[C@@H](C)O)C(=O)N1CCC[C@H]1C(=O)N[C@@H](CO)C(=O)N[C@@H](CO)C(=O)N[C@H](C(=O)N[C@@H](CC(N)=O)C(=O)N[C@H](C(=O)NCC(=O)N[C@@H](Cc1c[nH]cn1)C(=O)N[C@@H](CC(N)=O)C(=O)N[C@H](C(=O)N[C@@H](Cc1ccc(O)cc1)C(N)=O)[C@@H](C)O)C(C)C)[C@@H](C)O, also called compound 87) | 0.285 | 3.8 | 1.09 |
| K([AEEA-C20 diacid])CNTATCATQRLANFLRHSSPNFGAIPSSTNVGHNTY-NH2 (disulfide 2-7; N-terminus assumed; SMILES CC[C@H](C)[C@H](NC(=O)[C@H](C)NC(=O)CNC(=O)[C@H](Cc1ccccc1)NC(=O)[C@H](CC(N)=O)NC(=O)[C@@H]1CCCN1C(=O)[C@H](CO)NC(=O)[C@H](CO)NC(=O)[C@H](Cc1c[nH]cn1)NC(=O)[C@H](CCCNC(=N)N)NC(=O)[C@H](CC(C)C)NC(=O)[C@H](Cc1ccccc1)NC(=O)[C@H](CC(N)=O)NC(=O)[C@H](C)NC(=O)[C@H](CC(C)C)NC(=O)[C@H](CCCNC(=N)N)NC(=O)[C@H](CCC(N)=O)NC(=O)[C@@H](NC(=O)[C@H](C)NC(=O)[C@@H]1CSSC[C@H](NC(=O)[C@@H](N)CCCCNC(=O)COCCOCCNC(=O)CCCCCCCCCCCCCCCCCCC(=O)O)C(=O)N[C@@H](CC(N)=O)C(=O)N[C@@H]([C@@H](C)O)C(=O)N[C@@H](C)C(=O)N[C@@H]([C@@H](C)O)C(=O)N1)[C@@H](C)O)C(=O)N1CCC[C@H]1C(=O)N[C@@H](CO)C(=O)N[C@@H](CO)C(=O)N[C@H](C(=O)N[C@@H](CC(N)=O)C(=O)N[C@H](C(=O)NCC(=O)N[C@@H](Cc1c[nH]cn1)C(=O)N[C@@H](CC(N)=O)C(=O)N[C@H](C(=O)N[C@@H](Cc1ccc(O)cc1)C(N)=O)[C@@H](C)O)C(C)C)[C@@H](C)O, also called compound 91) [N^ε1-[2-[2-[2-(19-carboxynonadecanoylamino)ethoxy]ethoxy]acetyl]-[Arg17,Pro21,Pro27,His34]-h-amylin] | 0.04 | 36.9 | 1.48 |
| K([AEEA-C20 diacid])CNTATCATQRLAHFLRHSSPNFGAIPSSTNVGSNTY-NH2 (disulfide 2-7; N-terminus assumed; SMILES CC[C@H](C)[C@H](NC(=O)[C@H](C)NC(=O)CNC(=O)[C@H](Cc1ccccc1)NC(=O)[C@H](CC(N)=O)NC(=O)[C@@H]1CCCN1C(=O)[C@H](CO)NC(=O)[C@H](CO)NC(=O)[C@H](Cc1c[nH]cn1)NC(=O)[C@H](CCCNC(=N)N)NC(=O)[C@H](CC(C)C)NC(=O)[C@H](Cc1ccccc1)NC(=O)[C@H](Cc1c[nH]cn1)NC(=O)[C@H](C)NC(=O)[C@H](CC(C)C)NC(=O)[C@H](CCCNC(=N)N)NC(=O)[C@H](CCC(N)=O)NC(=O)[C@@H](NC(=O)[C@H](C)NC(=O)[C@@H]1CSSC[C@H](NC(=O)[C@@H](N)CCCCNC(=O)COCCOCCNC(=O)CCCCCCCCCCCCCCCCCCC(=O)O)C(=O)N[C@@H](CC(N)=O)C(=O)N[C@@H]([C@@H](C)O)C(=O)N[C@@H](C)C(=O)N[C@@H]([C@@H](C)O)C(=O)N1)[C@@H](C)O)C(=O)N1CCC[C@H]1C(=O)N[C@@H](CO)C(=O)N[C@@H](CO)C(=O)N[C@H](C(=O)N[C@@H](CC(N)=O)C(=O)N[C@H](C(=O)NCC(=O)N[C@@H](CO)C(=O)N[C@@H](CC(N)=O)C(=O)N[C@H](C(=O)N[C@@H](Cc1ccc(O)cc1)C(N)=O)[C@@H](C)O)C(C)C)[C@@H](C)O, also called compound 90) [N^ε1-[2-[2-[2-(19-carboxynonadecanoylamino)ethoxy]ethoxy]acetyl]-[His14,Arg17,Pro21,Pro27]-h-amylin] | 0.033 | 7.2 | 0.236 |

Results, then the binder that gave them:

| hAmylin-R funct. EC50 [1] [nM] | Ratio hCT/hAmylin funct. [2] | hCTR funct. EC50 [2] [nM] | Binder |
| --- | --- | --- | --- |
| 0.356 | 33 | 11.8 | K([AEEA-AEEA-γGlu-C20 diacid])CNTATCATQRLANFLRHSSPNFGAIPSSTNVGHNTY-NH2 (disulfide 2-7; N-terminus assumed; SMILES CC[C@H](C)[C@H](NC(=O)[C@H](C)NC(=O)CNC(=O)[C@H](Cc1ccccc1)NC(=O)[C@H](CC(N)=O)NC(=O)[C@@H]1CCCN1C(=O)[C@H](CO)NC(=O)[C@H](CO)NC(=O)[C@H](Cc1c[nH]cn1)NC(=O)[C@H](CCCNC(=N)N)NC(=O)[C@H](CC(C)C)NC(=O)[C@H](Cc1ccccc1)NC(=O)[C@H](CC(N)=O)NC(=O)[C@H](C)NC(=O)[C@H](CC(C)C)NC(=O)[C@H](CCCNC(=N)N)NC(=O)[C@H](CCC(N)=O)NC(=O)[C@@H](NC(=O)[C@H](C)NC(=O)[C@@H]1CSSC[C@H](NC(=O)[C@@H](N)CCCCNC(=O)COCCOCCNC(=O)COCCOCCNC(=O)CC[C@H](NC(=O)CCCCCCCCCCCCCCCCCCC(=O)O)C(=O)O)C(=O)N[C@@H](CC(N)=O)C(=O)N[C@@H]([C@@H](C)O)C(=O)N[C@@H](C)C(=O)N[C@@H]([C@@H](C)O)C(=O)N1)[C@@H](C)O)C(=O)N1CCC[C@H]1C(=O)N[C@@H](CO)C(=O)N[C@@H](CO)C(=O)N[C@H](C(=O)N[C@@H](CC(N)=O)C(=O)N[C@H](C(=O)NCC(=O)N[C@@H](Cc1c[nH]cn1)C(=O)N[C@@H](CC(N)=O)C(=O)N[C@H](C(=O)N[C@@H](Cc1ccc(O)cc1)C(N)=O)[C@@H](C)O)C(C)C)[C@@H](C)O, also called compound 97) |
| 0.651 | 33 | 21.5 | K([AEEA-AEEA-γGlu-C20 diacid])CNTATCATQRLANFLRHSSPNFGAIPSSTNVGRNTY-NH2 (disulfide 2-7; N-terminus assumed; SMILES CC[C@H](C)[C@H](NC(=O)[C@H](C)NC(=O)CNC(=O)[C@H](Cc1ccccc1)NC(=O)[C@H](CC(N)=O)NC(=O)[C@@H]1CCCN1C(=O)[C@H](CO)NC(=O)[C@H](CO)NC(=O)[C@H](Cc1c[nH]cn1)NC(=O)[C@H](CCCNC(=N)N)NC(=O)[C@H](CC(C)C)NC(=O)[C@H](Cc1ccccc1)NC(=O)[C@H](CC(N)=O)NC(=O)[C@H](C)NC(=O)[C@H](CC(C)C)NC(=O)[C@H](CCCNC(=N)N)NC(=O)[C@H](CCC(N)=O)NC(=O)[C@@H](NC(=O)[C@H](C)NC(=O)[C@@H]1CSSC[C@H](NC(=O)[C@@H](N)CCCCNC(=O)COCCOCCNC(=O)COCCOCCNC(=O)CC[C@H](NC(=O)CCCCCCCCCCCCCCCCCCC(=O)O)C(=O)O)C(=O)N[C@@H](CC(N)=O)C(=O)N[C@@H]([C@@H](C)O)C(=O)N[C@@H](C)C(=O)N[C@@H]([C@@H](C)O)C(=O)N1)[C@@H](C)O)C(=O)N1CCC[C@H]1C(=O)N[C@@H](CO)C(=O)N[C@@H](CO)C(=O)N[C@H](C(=O)N[C@@H](CC(N)=O)C(=O)N[C@H](C(=O)NCC(=O)N[C@@H](CCCNC(=N)N)C(=O)N[C@@H](CC(N)=O)C(=O)N[C@H](C(=O)N[C@@H](Cc1ccc(O)cc1)C(N)=O)[C@@H](C)O)C(C)C)[C@@H](C)O, also called compound 95) |
| 0.181 | 21 | 3.8 | K([AEEA-AEEA-γGlu-C20 diacid])CNTATCATQRLANFLRHSSPNFGAIPSSTPVGSNTY-NH2 (disulfide 2-7; N-terminus assumed; SMILES CC[C@H](C)[C@H](NC(=O)[C@H](C)NC(=O)CNC(=O)[C@H](Cc1ccccc1)NC(=O)[C@H](CC(N)=O)NC(=O)[C@@H]1CCCN1C(=O)[C@H](CO)NC(=O)[C@H](CO)NC(=O)[C@H](Cc1c[nH]cn1)NC(=O)[C@H](CCCNC(=N)N)NC(=O)[C@H](CC(C)C)NC(=O)[C@H](Cc1ccccc1)NC(=O)[C@H](CC(N)=O)NC(=O)[C@H](C)NC(=O)[C@H](CC(C)C)NC(=O)[C@H](CCCNC(=N)N)NC(=O)[C@H](CCC(N)=O)NC(=O)[C@@H](NC(=O)[C@H](C)NC(=O)[C@@H]1CSSC[C@H](NC(=O)[C@@H](N)CCCCNC(=O)COCCOCCNC(=O)COCCOCCNC(=O)CC[C@H](NC(=O)CCCCCCCCCCCCCCCCCCC(=O)O)C(=O)O)C(=O)N[C@@H](CC(N)=O)C(=O)N[C@@H]([C@@H](C)O)C(=O)N[C@@H](C)C(=O)N[C@@H]([C@@H](C)O)C(=O)N1)[C@@H](C)O)C(=O)N1CCC[C@H]1C(=O)N[C@@H](CO)C(=O)N[C@@H](CO)C(=O)N[C@H](C(=O)N1CCC[C@H]1C(=O)N[C@H](C(=O)NCC(=O)N[C@@H](CO)C(=O)N[C@@H](CC(N)=O)C(=O)N[C@H](C(=O)N[C@@H](Cc1ccc(O)cc1)C(N)=O)[C@@H](C)O)C(C)C)[C@@H](C)O, also called compound 96) |
